First the molecules themselves.
B1: NIgG4B2A1(G4S)2 (Fc fusion)
chain 1: QVQLVESGGGLVQAGGSLRLSCAVFGSTFSNNVADWYRQAPGKQRELVARISASGATREYGDSVKGRFTISRDDAKNTMYLQMNNLKPEDTAVYRCHKIEWEDLSRKDYWGQGTQVTVSGGGGSGGGGSGPPCPPCPAPEFLGGPSVFLFPPKPKDTLMISRTPEVTCVVVDVSQEDPEVQFNWYVDGVEVHNAKTKPREEQFNSTYRVVSVLTVLHQDWLNGKEYKCKVSNKGLPSSIEKTISKAKGQPREPQVYTLPPCQEEMTKNQVSLWCLVKGFYPSDIAVEWESNGQPENNYKTTPPVLDSDGSFFLYSRLTVDKSRWQEGNVFSCSVMHEALHNHYTQKSLSLSLGK
chain 2: EVQLLESGGGLVQPGGSLRLSCAASGFTFGNYDMAWVRQAPGKRPEWVSSIDTGGDITHYADSVKGRFTISRDNAKNTLYLQMNSLRPEDTAVYWCATDEEYALGPNEFDYYGQGTLVTVSSGGGGSGGGGSGPPCPPCPAPEFLGGPSVFLFPPKPKDTLMISRTPEVTCVVVDVSQEDPEVQFNWYVDGVEVHNAKTKPREEQFNSTYRVVSVLTVLHQDWLNGKEYKCKVSNKGLPSSIEKTISKAKGQPREPQVCTLPPSQEEMTKNQVSLSCAVKGFYPSDIAVEWESNGQPENNYKTTPPVLDSDGSFFLVSRLTVDKSRWQEGNVFSCSVMHEALHNHYTQKSLSLSLGK
B2: CIgG4B2A1(G4S)1 (Fc fusion)
chain 1: GPPCPPCPAPEFLGGPSVFLFPPKPKDTLMISRTPEVTCVVVDVSQEDPEVQFNWYVDGVEVHNAKTKPREEQFNSTYRVVSVLTVLHQDWLNGKEYKCKVSNKGLPSSIEKTISKAKGQPREPQVYTLPPCQEEMTKNQVSLWCLVKGFYPSDIAVEWESNGQPENNYKTTPPVLDSDGSFFLYSRLTVDKSRWQEGNVFSCSVMHEALHNHYTQKSLSLSLGKGGGGSQVQLVESGGGLVQAGGSLRLSCAVFGSTFSNNVADWYRQAPGKQRELVARISASGATREYGDSVKGRFTISRDDAKNTMYLQMNNLKPEDTAVYRCHKIEWEDLSRKDYWGQGTQVTVS
chain 2: GPPCPPCPAPEFLGGPSVFLFPPKPKDTLMISRTPEVTCVVVDVSQEDPEVQFNWYVDGVEVHNAKTKPREEQFNSTYRVVSVLTVLHQDWLNGKEYKCKVSNKGLPSSIEKTISKAKGQPREPQVCTLPPSQEEMTKNQVSLSCAVKGFYPSDIAVEWESNGQPENNYKTTPPVLDSDGSFFLVSRLTVDKSRWQEGNVFSCSVMHEALHNHYTQKSLSLSLGKGGGGSEVQLLESGGGLVQPGGSLRLSCAASGFTFGNYDMAWVRQAPGKRPEWVSSIDTGGDITHYADSVKGRFTISRDNAKNTLYLQMNSLRPEDTAVYWCATDEEYALGPNEFDYYGQGTLVTVSS
B3: CIgG4B3A1(G4S)1 (Fc fusion)
chain 1: GPPCPPCPAPEFLGGPSVFLFPPKPKDTLMISRTPEVTCVVVDVSQEDPEVQFNWYVDGVEVHNAKTKPREEQFNSTYRVVSVLTVLHQDWLNGKEYKCKVSNKGLPSSIEKTISKAKGQPREPQVYTLPPCQEEMTKNQVSLWCLVKGFYPSDIAVEWESNGQPENNYKTTPPVLDSDGSFFLYSRLTVDKSRWQEGNVFSCSVMHEALHNHYTQKSLSLSLGKGGGGSDVQLQESGGGLVQAGGSLRLSCAASGFIFRLAGMSWVRQAPGKGFEWVSGITMDGSTTNYADSVKGRFTISRDNSKNRLYLQMNSLKPEDTAVYYCARGAKGGYNDPRGQGTQVTVS
chain 2: GPPCPPCPAPEFLGGPSVFLFPPKPKDTLMISRTPEVTCVVVDVSQEDPEVQFNWYVDGVEVHNAKTKPREEQFNSTYRVVSVLTVLHQDWLNGKEYKCKVSNKGLPSSIEKTISKAKGQPREPQVCTLPPSQEEMTKNQVSLSCAVKGFYPSDIAVEWESNGQPENNYKTTPPVLDSDGSFFLVSRLTVDKSRWQEGNVFSCSVMHEALHNHYTQKSLSLSLGKGGGGSEVQLLESGGGLVQPGGSLRLSCAASGFTFGNYDMAWVRQAPGKRPEWVSSIDTGGDITHYADSVKGRFTISRDNAKNTLYLQMNSLRPEDTAVYWCATDEEYALGPNEFDYYGQGTLVTVSS
notes: also called CIgG4B3A1(GS)1
B4: CIgG4B2A1(G4S)2 (Fc fusion)
chain 1: GPPCPPCPAPEFLGGPSVFLFPPKPKDTLMISRTPEVTCVVVDVSQEDPEVQFNWYVDGVEVHNAKTKPREEQFNSTYRVVSVLTVLHQDWLNGKEYKCKVSNKGLPSSIEKTISKAKGQPREPQVYTLPPCQEEMTKNQVSLWCLVKGFYPSDIAVEWESNGQPENNYKTTPPVLDSDGSFFLYSRLTVDKSRWQEGNVFSCSVMHEALHNHYTQKSLSLSLGKGGGGSGGGGSQVQLVESGGGLVQAGGSLRLSCAVFGSTFSNNVADWYRQAPGKQRELVARISASGATREYGDSVKGRFTISRDDAKNTMYLQMNNLKPEDTAVYRCHKIEWEDLSRKDYWGQGTQVTVS
chain 2: GPPCPPCPAPEFLGGPSVFLFPPKPKDTLMISRTPEVTCVVVDVSQEDPEVQFNWYVDGVEVHNAKTKPREEQFNSTYRVVSVLTVLHQDWLNGKEYKCKVSNKGLPSSIEKTISKAKGQPREPQVCTLPPSQEEMTKNQVSLSCAVKGFYPSDIAVEWESNGQPENNYKTTPPVLDSDGSFFLVSRLTVDKSRWQEGNVFSCSVMHEALHNHYTQKSLSLSLGKGGGGSGGGGSEVQLLESGGGLVQPGGSLRLSCAASGFTFGNYDMAWVRQAPGKRPEWVSSIDTGGDITHYADSVKGRFTISRDNAKNTLYLQMNSLRPEDTAVYWCATDEEYALGPNEFDYYGQGTLVTVSS
B5: NIgG4B2A1(G4S)3 (Fc fusion)
chain 1: QVQLVESGGGLVQAGGSLRLSCAVFGSTFSNNVADWYRQAPGKQRELVARISASGATREYGDSVKGRFTISRDDAKNTMYLQMNNLKPEDTAVYRCHKIEWEDLSRKDYWGQGTQVTVSGGGGSGGGGSGGGGSGPPCPPCPAPEFLGGPSVFLFPPKPKDTLMISRTPEVTCVVVDVSQEDPEVQFNWYVDGVEVHNAKTKPREEQFNSTYRVVSVLTVLHQDWLNGKEYKCKVSNKGLPSSIEKTISKAKGQPREPQVYTLPPCQEEMTKNQVSLWCLVKGFYPSDIAVEWESNGQPENNYKTTPPVLDSDGSFFLYSRLTVDKSRWQEGNVFSCSVMHEALHNHYTQKSLSLSLGK
chain 2: EVQLLESGGGLVQPGGSLRLSCAASGFTFGNYDMAWVRQAPGKRPEWVSSIDTGGDITHYADSVKGRFTISRDNAKNTLYLQMNSLRPEDTAVYWCATDEEYALGPNEFDYYGQGTLVTVSSGGGGSGGGGSGGGGSGPPCPPCPAPEFLGGPSVFLFPPKPKDTLMISRTPEVTCVVVDVSQEDPEVQFNWYVDGVEVHNAKTKPREEQFNSTYRVVSVLTVLHQDWLNGKEYKCKVSNKGLPSSIEKTISKAKGQPREPQVCTLPPSQEEMTKNQVSLSCAVKGFYPSDIAVEWESNGQPENNYKTTPPVLDSDGSFFLVSRLTVDKSRWQEGNVFSCSVMHEALHNHYTQKSLSLSLGK
B6: CIgG4B2A1(RS) (Fc fusion)
chain 1: GPPCPPCPAPEFLGGPSVFLFPPKPKDTLMISRTPEVTCVVVDVSQEDPEVQFNWYVDGVEVHNAKTKPREEQFNSTYRVVSVLTVLHQDWLNGKEYKCKVSNKGLPSSIEKTISKAKGQPREPQVYTLPPCQEEMTKNQVSLWCLVKGFYPSDIAVEWESNGQPENNYKTTPPVLDSDGSFFLYSRLTVDKSRWQEGNVFSCSVMHEALHNHYTQKSLSLSLGKRSQVQLVESGGGLVQAGGSLRLSCAVFGSTFSNNVADWYRQAPGKQRELVARISASGATREYGDSVKGRFTISRDDAKNTMYLQMNNLKPEDTAVYRCHKIEWEDLSRKDYWGQGTQVTVS
chain 2: GPPCPPCPAPEFLGGPSVFLFPPKPKDTLMISRTPEVTCVVVDVSQEDPEVQFNWYVDGVEVHNAKTKPREEQFNSTYRVVSVLTVLHQDWLNGKEYKCKVSNKGLPSSIEKTISKAKGQPREPQVCTLPPSQEEMTKNQVSLSCAVKGFYPSDIAVEWESNGQPENNYKTTPPVLDSDGSFFLVSRLTVDKSRWQEGNVFSCSVMHEALHNHYTQKSLSLSLGKRSEVQLLESGGGLVQPGGSLRLSCAASGFTFGNYDMAWVRQAPGKRPEWVSSIDTGGDITHYADSVKGRFTISRDNAKNTLYLQMNSLRPEDTAVYWCATDEEYALGPNEFDYYGQGTLVTVSS
B7: CIgG4B3A1(RS) (Fc fusion)
chain 1: GPPCPPCPAPEFLGGPSVFLFPPKPKDTLMISRTPEVTCVVVDVSQEDPEVQFNWYVDGVEVHNAKTKPREEQFNSTYRVVSVLTVLHQDWLNGKEYKCKVSNKGLPSSIEKTISKAKGQPREPQVYTLPPCQEEMTKNQVSLWCLVKGFYPSDIAVEWESNGQPENNYKTTPPVLDSDGSFFLYSRLTVDKSRWQEGNVFSCSVMHEALHNHYTQKSLSLSLGKRSDVQLQESGGGLVQAGGSLRLSCAASGFIFRLAGMSWVRQAPGKGFEWVSGITMDGSTTNYADSVKGRFTISRDNSKNRLYLQMNSLKPEDTAVYYCARGAKGGYNDPRGQGTQVTVS
chain 2: GPPCPPCPAPEFLGGPSVFLFPPKPKDTLMISRTPEVTCVVVDVSQEDPEVQFNWYVDGVEVHNAKTKPREEQFNSTYRVVSVLTVLHQDWLNGKEYKCKVSNKGLPSSIEKTISKAKGQPREPQVCTLPPSQEEMTKNQVSLSCAVKGFYPSDIAVEWESNGQPENNYKTTPPVLDSDGSFFLVSRLTVDKSRWQEGNVFSCSVMHEALHNHYTQKSLSLSLGKRSEVQLLESGGGLVQPGGSLRLSCAASGFTFGNYDMAWVRQAPGKRPEWVSSIDTGGDITHYADSVKGRFTISRDNAKNTLYLQMNSLRPEDTAVYWCATDEEYALGPNEFDYYGQGTLVTVSS
B8: CIgG4B2A1(G4S)3 (Fc fusion)
chain 1: GPPCPPCPAPEFLGGPSVFLFPPKPKDTLMISRTPEVTCVVVDVSQEDPEVQFNWYVDGVEVHNAKTKPREEQFNSTYRVVSVLTVLHQDWLNGKEYKCKVSNKGLPSSIEKTISKAKGQPREPQVYTLPPCQEEMTKNQVSLWCLVKGFYPSDIAVEWESNGQPENNYKTTPPVLDSDGSFFLYSRLTVDKSRWQEGNVFSCSVMHEALHNHYTQKSLSLSLGKGGGGSGGGGSGGGGSQVQLVESGGGLVQAGGSLRLSCAVFGSTFSNNVADWYRQAPGKQRELVARISASGATREYGDSVKGRFTISRDDAKNTMYLQMNNLKPEDTAVYRCHKIEWEDLSRKDYWGQGTQVTVS
chain 2: GPPCPPCPAPEFLGGPSVFLFPPKPKDTLMISRTPEVTCVVVDVSQEDPEVQFNWYVDGVEVHNAKTKPREEQFNSTYRVVSVLTVLHQDWLNGKEYKCKVSNKGLPSSIEKTISKAKGQPREPQVCTLPPSQEEMTKNQVSLSCAVKGFYPSDIAVEWESNGQPENNYKTTPPVLDSDGSFFLVSRLTVDKSRWQEGNVFSCSVMHEALHNHYTQKSLSLSLGKGGGGSGGGGSGGGGSEVQLLESGGGLVQPGGSLRLSCAASGFTFGNYDMAWVRQAPGKRPEWVSSIDTGGDITHYADSVKGRFTISRDNAKNTLYLQMNSLRPEDTAVYWCATDEEYALGPNEFDYYGQGTLVTVSS

By EC50 is commonly meant the concentration giving half of the maximal effect.

The target in the assay is T1, recombinant human IgE (human, UniProt P01854-1 1-428).
T1 construct: made in-house (ALK); preloaded on immobilised FcεRIα in the displacement ELISA
T1 sequence (P01854 other isoform, or with tags, fused parts or gaps): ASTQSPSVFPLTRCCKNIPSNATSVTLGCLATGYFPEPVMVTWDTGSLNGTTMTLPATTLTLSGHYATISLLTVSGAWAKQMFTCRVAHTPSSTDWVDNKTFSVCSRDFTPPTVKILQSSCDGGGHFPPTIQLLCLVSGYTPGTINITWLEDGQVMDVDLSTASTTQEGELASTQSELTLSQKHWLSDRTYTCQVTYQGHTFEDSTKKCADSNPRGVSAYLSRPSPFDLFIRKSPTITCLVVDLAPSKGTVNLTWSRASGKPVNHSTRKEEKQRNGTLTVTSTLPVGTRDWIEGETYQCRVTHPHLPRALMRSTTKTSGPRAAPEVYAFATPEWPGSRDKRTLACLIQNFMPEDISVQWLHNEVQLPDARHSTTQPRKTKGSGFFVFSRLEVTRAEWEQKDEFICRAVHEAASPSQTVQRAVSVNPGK
The experiment in a line: IgE-FcεRIα displacement ELISA. An outline of the steps:
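Streptavidin-coated plates carried site-specifically biotinylated recombinant human FcεRIα, loaded with recombinant human IgE at 13 ng/ml. sdAbs in a pM–μM series were added for 1 h, and displaced IgE was washed off. Percent displacement was the signal reduction versus the no-sdAb control, giving EC50 and maximal effect.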
For orientation: In an ELISA, binding on a coated surface is turned into a signal by an enzyme label.
B1: the Max effect was more than 95%.
With B2, the EC50 came out at 0.8 nM and the Max effect was more than 95%.
On to B3, for which the Max effect turned out to be 45%.
On to B4, for which the EC50 is 0.7 nM and the Max effect was more than 95%.
For the molecule B5, the Max effect was more than 95%.
Turning to B6, the EC50 was found to be 130 nM and the Max effect turned out to be 70%.
With B7, the Max effect came to 0%.
For B8, the EC50 is 2.1 nM and the Max effect was more than 95%.

For the origin of these results see US20250171562A1 (ALK ABELL, published 2025).
